Measurements: patent publication US20190282683A1

Target: Ag85b protein from Mycobacterium tuberculosis (poly-His tagged test protein) (Mycobacterium tuberculosis)

splenocytes of mice injected with Sbi-III-IV-Ag85b (cells without a defined receptor)
Secreted IFN-gamma in the tissue culture supernatant (ELISA): 4 fold
